In PMC3762913 one finds fraction of cross-linked dimer and stoichiometry N data, which are given here for one molecule.

What all share (settings): remark: other sources report otherwise
Assay [1] has as its target T1, wild type (WT) human peripheral myelin protein 22 (PMP22) (human), Q01453.
T1 chain: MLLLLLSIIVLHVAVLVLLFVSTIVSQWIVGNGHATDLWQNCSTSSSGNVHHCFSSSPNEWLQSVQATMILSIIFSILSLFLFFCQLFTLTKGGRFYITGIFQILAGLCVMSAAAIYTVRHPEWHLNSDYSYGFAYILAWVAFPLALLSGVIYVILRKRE
In words: cross-linking.

For assay [2], the target named is T1, wild type (WT) human peripheral myelin …. The experiment in a line: cross-linking.
For assay [3] the target is unchanged. The experiment in a line: cross-linking.
Assay [4] shares this target. In words: cross-linking.
For assay [5] the target is unchanged. In words: SEC.

B1: wild type (WT) human peripheral myelin protein 22 (PMP22), Q01453 1-160 (natural protein)
chain: T1 chain
For B1, the fraction of cross-linked dimer in assay [1] turned out to be 0.6; in assay [2], 0.5; in assay [3] it was 0.2; in assay [4], 0.3. For the same molecule, the stoichiometry N in assay [2] and in assay [5] was 2 throughout.
